{"source": "paper PMC3419727", "about": "“Identifying the Hotspots on the Top Faces of WD40-Repeat Proteins from Their Primary Sequences by β-Bulges and DHSW Tetrads” (PLoS ONE, 2012)", "binders": {"B1": {"name": "C-terminal region of S. pombe Fep1 (amino acids 319–564) (domain or fragment, UniProt Q10134 319-564, looked up)", "chain": "AAGEPDNNGKVYYSYGPTQEQSILPLPENKHEGLPPYQNEYVPNGIRANQVVYPGQLVAVGNDSSKQLSESTTSNTDNNGVATANQSNPLGMKFHLPPILPVGESVCLPPRTSAKPRIAEGIASLLNPEEPPSNSDKQPSMSNGPKSEVSPSQSQQAPLIQSSTSPVSLQFPPEVQGSNVDKRNYALNVLSQLRSQHDLMIQELHNLNQHIQQIDEWLRSSDNENMASEHIKSSTPAVVASGALQT", "notes": "Fep1, GATA-factor, S. pombe, C-terminal region, amino acids 319-564"}}, "key": {"[1]": {"target": "The remained five residues (Ala substitutions at R1 positions of Tup11)", "assay": "ITC; Fep1 (~1.4 mM) injected, 2 µl each time, into Tup11 WT or mutant (~0.2 mM); 25°C; 1×PBS pH 7.4, 150 mM NaCl; iTC200 (MicroCal); Fep1 into buffer subtracted as background"}, "[2]": {"target": "Leu524Ala at D-1 and Phe557Ala at R1-2", "assay": "ITC; Fep1 (~1.4 mM) injected, 2 µl each time, into Tup11 WT or mutant (~0.2 mM); 25°C; 1×PBS pH 7.4, 150 mM NaCl; iTC200 (MicroCal); Fep1 into buffer subtracted as background"}, "[3]": {"target": "T1, S. japonicus Tup11 WD40 domain (amino acids 301–630), wild type (S. japonicus, UniProt B6JV84 301-630)", "T1 chain": "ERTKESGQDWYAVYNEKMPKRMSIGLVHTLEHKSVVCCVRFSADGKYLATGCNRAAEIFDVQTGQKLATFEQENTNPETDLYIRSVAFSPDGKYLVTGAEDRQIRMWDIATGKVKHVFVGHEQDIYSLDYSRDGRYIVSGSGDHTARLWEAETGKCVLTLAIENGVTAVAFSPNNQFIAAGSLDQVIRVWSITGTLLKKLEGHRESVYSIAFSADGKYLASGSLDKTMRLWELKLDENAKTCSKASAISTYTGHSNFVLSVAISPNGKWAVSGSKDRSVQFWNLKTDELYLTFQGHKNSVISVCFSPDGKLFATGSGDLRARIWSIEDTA", "assay": "ITC"}, "[4]": {"target": "T2, S. japonicus Tup11 WD40 domain (301–630) Leu524Ala (S. japonicus, UniProt B6JV84 301-630, Leu524Ala)", "T2 construct": "Tup11, S. japonicus, WD40 domain, amino acids 301-630", "T2 sequence (looked up)": "T1 chain with L224A", "assay": "ITC; Fep1 (~1.4 mM) injected, 2 µl each time, into Tup11 WT or mutant (~0.2 mM); 25°C; 1×PBS pH 7.4, 150 mM NaCl; iTC200 (MicroCal); Fep1 into buffer subtracted as background", "conditions": "both partners purified"}}, "note": "Where a chain is given by its changes, count along the chain named. Values joined by “and” are separate entries in the source; they are usually repeats but may differ in a detail not shown here. Equal entries are not always repeated."}
{"binder": "B1", "values": [{"measurement": "reduction of binding free energy against wild type", "setting": "[1]", "result": "1 kcal/mol and 1.5 kcal/mol"}, {"measurement": "reduction of binding free energy against wild type", "setting": "[2]", "result": "0.5 kcal/mol and 0.8 kcal/mol"}, {"measurement": "Ka", "setting": "[3]", "result": 70000, "unit": "M⁻¹"}, {"measurement": "binding result", "setting": "[4]", "result": "binds"}]}
